According to doi:10.1101/2025.03.30.646247 (bioRxiv, 2025):

Target: T1, 6xHis-CIPK6 (Arabidopsis thaliana, UniProt O65554 1-441)
T1 sequence: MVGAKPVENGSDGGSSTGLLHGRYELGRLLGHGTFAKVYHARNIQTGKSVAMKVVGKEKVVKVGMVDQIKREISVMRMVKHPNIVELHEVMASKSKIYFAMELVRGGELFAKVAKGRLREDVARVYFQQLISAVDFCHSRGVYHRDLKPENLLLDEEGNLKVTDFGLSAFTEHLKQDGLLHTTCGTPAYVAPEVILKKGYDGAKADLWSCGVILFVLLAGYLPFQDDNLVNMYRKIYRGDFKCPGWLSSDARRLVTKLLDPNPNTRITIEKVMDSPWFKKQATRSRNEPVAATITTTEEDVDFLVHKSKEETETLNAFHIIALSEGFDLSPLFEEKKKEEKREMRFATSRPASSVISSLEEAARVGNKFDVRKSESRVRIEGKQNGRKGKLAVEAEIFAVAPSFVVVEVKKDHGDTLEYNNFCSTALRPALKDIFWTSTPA
Assay: pull-down

B1: GST-RbohD-N (domain or fragment)
chain: MKMRRGNSSNDHELGILRGANSDTNSDTESIASDRGAFSGPLGRPKRASKKNARFADDLPKRSNSVAGGRGDDDEYVEITLDIRDDSVAVHSVQQAAGGGGHLEDPELALLTKKTLESSLNNTTSLSFFRSTSSRIKNASRELRRVFSRRPSPAVRRFDRTSSAAIHALKGLKFIATKTAAWPAVDQRFDKLSADSNGLLLSAKFWECLGMNKESKDFADQLFRALARRNNVSGDAITKEQLRIFWEQISDESFDAKLQVFFDMVDKDEDGRVTEEEVAEIISLSASANKLSNIQKQAKEYAALIMEELDPDNAGFIMIENLEMLLLQAPNQSVRMGDSRILSQMLSQKLRPAKESNPLVRWSEKIKYFILDNWQR
B1: binds.
